Test results from patent US20160235855A1, “STABLE AQUEOUS PARENTERAL PHARMACEUTICAL COMPOSITIONS OF INSULINOTROPIC PEPTIDES” (SHANGHAI BENEMAE PHARMACEUTICAL CORPORATION, priority 2013, published 2016).
Like-named read-outs stand apart in the source and are kept apart here.

Experiments:
[1] = Long-term stability of GLP-1 formulations by HPLC; format: physicochemical
Method: The GLP-1 purity was determined by comparing the GLP-1 peak area with the total peak area.

[2] = Absorption values at 360 nm (physical stability); format: physicochemical; conditions: for Absorption values at 360 nm: 8 days
From the text: If there was evident precipitation or turbidity, no further determination would be carried out. If the samples had no abnormal phenomena observable with the naked eye, the samples were taken and subjected to determination of absorption values at 360 nm and HPLC detection, wherein the former investigated the physical stability, and the latter investigated the chemical stability.
Absorption values determined at a wavelength of 360 nm were compared, so as to compare differences in physical stability among the samples. A higher absorption value indicated poorer physical stability.

[3] = WO00/37098, cited from earlier work

Substance: Glucagon-like peptide 1 [GLP-1]
- storage duration ([1]; 2 to 8° C., composition pH about 3.5 to 5.0): ≥ 2 years
- storage duration ([1]; 4° C., GLP-1 concentration up to 2 mg/ml, preservative added): 2 years
- Absorption values at 360 nm ([2]; pH 3.0, NaCl 0 mg/mL, 35° C.): 0.0706
- Absorption values at 360 nm ([2]; pH 3.0, NaCl 0 mg/mL, 45° C.): 0.0844
- Absorption values at 360 nm ([2]; pH 3.0, NaCl 1.17 mg/mL, 35° C.): 0.0716
- Absorption values at 360 nm ([2]; pH 3.0, NaCl 1.17 mg/mL, 45° C.): 0.0724
- Absorption values at 360 nm ([2]; pH 3.0, NaCl 8.77 mg/mL, 45° C.): 0.1812
- Absorption values at 360 nm ([2]; pH 3.0, NaCl 29.22 mg/mL, 35° C.): 0.2052
- Absorption values at 360 nm ([2]; pH 3.0, NaCl 29.22 mg/mL, 45° C.): 0.2417
- Absorption values at 360 nm ([2]; pH 3.5, NaCl 0 mg/mL, 35° C.): 0.0684
- Absorption values at 360 nm ([2]; pH 3.5, NaCl 0 mg/mL, 45° C.): 0.0689
- Absorption values at 360 nm ([2]; pH 3.5, NaCl 1.17 mg/mL, 35° C.): 0.0694
- Absorption values at 360 nm ([2]; pH 3.5, NaCl 1.17 mg/mL, 45° C.): 0.0823
- Absorption values at 360 nm ([2]; pH 3.5, NaCl 8.77 mg/mL, 35° C.): 0.1882
- Absorption values at 360 nm ([2]; pH 3.5, NaCl 8.77 mg/mL, 45° C.): 0.1780
- Absorption values at 360 nm ([2]; pH 4.0, NaCl 0 mg/mL, 35° C.): 0.0686
- Absorption values at 360 nm ([2]; pH 4.0, NaCl 0 mg/mL, 45° C.): 0.0843
- Absorption values at 360 nm ([2]; pH 4.0, NaCl 1.17 mg/mL, 35° C.): 0.1354
- Absorption values at 360 nm ([2]; pH 4.0, NaCl 1.17 mg/mL, 45° C.): 0.1448
- Absorption values at 360 nm ([2]; pH 4.0, NaCl 8.77 mg/mL, 35° C.): 0.1907
- Absorption values at 360 nm ([2]; pH 4.0, NaCl 8.77 mg/mL, 45° C.): 0.1974
- Absorption values at 360 nm ([2]; pH 4.5, NaCl 0 mg/mL, 35° C.): 0.1326
- Absorption values at 360 nm ([2]; pH 4.5, NaCl 0 mg/mL, 45° C.): 0.1370
- Absorption values at 360 nm ([2]; pH 4.5, NaCl 1.17 mg/mL, 35° C.): 0.1655
- Absorption values at 360 nm ([2]; pH 4.5, NaCl 1.17 mg/mL, 45° C.): 0.1814
- Absorption values at 360 nm ([2]; pH 7.0, NaCl 0 mg/mL, 35° C.): 0.0813
- Absorption values at 360 nm ([2]; pH 7.0, NaCl 0 mg/mL, 45° C.): 0.0828
- Absorption values at 360 nm ([2]; pH 7.0, NaCl 1.17 mg/mL, 35° C.): 0.0864
- Absorption values at 360 nm ([2]; pH 7.0, NaCl 1.17 mg/mL, 45° C.): 0.0865
- Absorption values at 360 nm ([2]; pH 7.0, NaCl 8.77 mg/mL, 35° C.): 0.0824
- Absorption values at 360 nm ([2]; pH 7.0, NaCl 8.77 mg/mL, 45° C.): 0.0841
- Absorption values at 360 nm ([2]; pH 7.0, NaCl 29.22 mg/mL, 35° C.): 0.0850
- Absorption values at 360 nm ([2]; pH 7.0, NaCl 29.22 mg/mL, 45° C.): 0.0862
- physical stability ([2]; pH 7.0 and 7.5): normal
- Absorption values at 360 nm ([2]; pH 7.5, NaCl 0 mg/mL, 35° C.): 0.0807
- Absorption values at 360 nm ([2]; pH 7.5, NaCl 0 mg/mL, 45° C.): 0.0859
- Absorption values at 360 nm ([2]; pH 7.5, NaCl 1.17 mg/mL, 35° C.): 0.0799
- Absorption values at 360 nm ([2]; pH 7.5, NaCl 1.17 mg/mL, 45° C.): 0.0937
- Absorption values at 360 nm ([2]; pH 7.5, NaCl 8.77 mg/mL, 35° C.): 0.0846
- Absorption values at 360 nm ([2]; pH 7.5, NaCl 8.77 mg/mL, 45° C.): 0.0902
- Absorption values at 360 nm ([2]; pH 7.5, NaCl 29.22 mg/mL, 35° C.): 0.0861
- Absorption values at 360 nm ([2]; pH 7.5, NaCl 29.22 mg/mL, 45° C.): 0.0942
- physical stability ([3]; between pH 6.8 and 7.5): poor
- chemical stability ([3]; pH value greater than 8.8): reduced
- appearance of the formulation ([3]; pH value less than 8.0 after the addition of a preservative): turbid
